From the DeepSol protein solubility set

Test: soluble on expression in E. coli; label from the status in PepcDB or PDB records
For “MAVTREDLEQNRLRAALGDSPVASTLLTEAALEASLASTLARLSAAPCEGQDAWVFGYGSLIWNPMIFHTEVARATVRGYHRGFYLYSRINRGTWDNPGLVLGLDRGGSCSGVAFRVPRAHAEREFRVLWRREMLTGAYLPRWLPTEIHGERILALAFVMNRTHEAYAGRLPDERVVGCLHKAVGLYGPAREYLQRTLIGLASNGLHDPYLDRLWQRLQAMDINAANAPSQTADTDGTGPLPDPYLSALEHHHHHH”, the “soluble on expression in E. coli” value was “not soluble”.
With “MRPLILSIFALFLAGCTHSQQSMVDTFRASLFDNQDITVADQQIQALPYSTMYLRLNEGQRIFVVLGYIEQEQSKWLSQDNAMLVTHNGRLLKTVKLNNNLLEVTNSGQDPLRNALAIKDGSRWTRDILWSEDNHFRSATLSSTFSFAGLETLHIAGRDVLCNVWQEEVTSTLPEKQWQNTFWVDSATGQVRQSRQMLGAGVIPVEMTFLKPAP” the “soluble on expression in E. coli” value was “not soluble”.
For “MSNKTKLKDNKELLYQVVLSYKVSHNYPLKAFLIECKNKLNECIDMIWNNIKYTKKDNPKLPKSNEFKRELRNKLLENWNYASHYIDGIIKTSYSILQSWASNYKRGYRTKTKPIAKRLFVRVKTTLIKYDKEKGEIRITIKPRKDYLILNIKNEWFFDKVKNLTIGEIILKEKETFLTFKDNLNYSDKGMIVGVDSNLRSLDLFHPIEGWTRVDLTELHRIKEVYDRKIDFLKKLLKKFPLRAMRKINRLFERRRNRVKDFLHKLTIQLSRLFPDAIFVFEDLNKRRMYKSKYFNRKIDRVNWNGLIEKISYKTIVILVNPAYTSTICPICGSRMESQEGQVVYCSNCLNSFNRQLVGCYNIFKRGLGNIKEIMGGSGVTTTGVEVSFGKLMTPNPNVIYIVDYNGKYFNEIA”, the “soluble on expression in E. coli” value was “soluble”.
In the case of “MADRLIVKGAREHNLRSVDLDLPRDALIVFTGLSGSGKSSLAFDTIFAEGQRRYVESLSAYARQFLGQMDKPDVDFIEGLSPAVSIDQKSTNRNPRSTVGTITEVYDYLRLLYARAGTPHCPTCGERVARQTPQQIVDQVLAMPEGTRFLVLAPVVRTRKGEFADLFDKLNAQGYSRVRVDGVVHPLTDPPKLKKQEKHDIEVVVDRLTVKAAAKRRLTDSVETALNLADGIVVLEFVDHELGAPHREQRFSEKLACPNGHALAVDDLEPRSFSFNSPYGACPECSGLGIRKEVDPELVVPDPDRTLAQGAVAPWSNGHTAEYFTRMMAGLGEALGFDVDTPWRKLPAKARKAILEGADEQVHVRYRNRYGRTRSYYADFEGVLAFLQRKMSQTESEQMKERYEGFMRDVPCPVCAGTRLKPEILAVTLAGESKGEHGAKSIAEVCELSIADCADFLNALTLGPREQAIAGQVLKEIRSRLGFLLDVGLEYLSLSRAAATLSGGEAQRIRLATQIGSGLVGVLYVLDEPSIGLHQRDNRRLIETLTRLRDLGNTLIVVEHDEDTIEHADWIVDIGPGAGEHGGRIVHSGPYDELLRNKDSITGAYLSGRESIEIPAIRRSVDPRRQLTVVGAREHNLRGIDVSFPLGVLTSVTGVSGSGKSTLVNDILAAVLANRLNGARQVPGRHTRVTGLDYLDKLVRVDQSPIGRTPRSNPATYTGVFDKIRTLFAATTEAKVRGYQPGRFSFNVKGGRCEACTGDGTIKIEMNFLPDVYVPCEVCQGARYNRETLEVHYKGKTVSEVLDMSIEEAAEFFEPIAGVHRYLRTLVDVGLGYVRLGQPAPTLSGGEAQRVKLASELQKRSTGRTVYILDEPTTGLHFDDIRKLLNVINGLVDKGNTVIVIEHNLDVIKTSDWIIDLGPEGGAGGGTVVAQGTPEDVAAVPASYTGKFLAEVVGGGASAATSRSNRRRNVSA”, the “soluble on expression in E. coli” value is reported as “soluble”.
With “MPVSNEIWQLLSRLAEDIRPIGVNISAGEPNRLWTEAKWRALLERFPGERFVVLSGPDDLDAKRRLEEQCPNAVASPPTRNLYEASCIVAKLRLLVTPDTSMVHVASATGTPVAGLYREAPQDISRFGPYAIPYEIVISPTGEVSGIKPESVADAVRRLMARAIGREALEHHHHHH” the “soluble on expression in E. coli” value was “not soluble”.
With “MTQPPASTSGIMGTLSSWNLKILQINQLHLVHWNAVKFENFEDAALEENGLAVIGVFLKISETSGSPVSTGRPKPLARKLRPAQKHWVLQSRPFLSSQVQENCKVTYFHRKHWVRIRPLRTTPPSWDYTRICIQREMVPARIRVLREMVPEAWRCFPNRLPLLSNIRPDFSKAPLAYVKRWLWTARHPHSLSAAW” the “soluble on expression in E. coli” value was “soluble”.
With “MSSNFRHQLLSLSLLVGIAAPWAAFAQAPISSVGSGSVEDRVTQLERISNAHSQLLTQLQQQLSDNQSDIDSLRGQIQENQYQLNQVVERQKQILLQIDSLSSGGAAAQSTSGDQSGAAASTTPTADAGTANAGAPVKSGNANTDYNAAIALVQDKSRQDDAMVAFQNFIKNYPDSTYLPNANYWLGQLNYNKGKKDDAAYYFASVVKNYPKSPKAADAMFKVGVIMQDKGDTAKAKAVYQQVISKYPGTDGAKQAQKRLNAM” the “soluble on expression in E. coli” value was “soluble”.
For “MSLSSTSHERLEVEPIDESSILFADDDHYTSDTVCLVTGGGSGIGRATALAMAANGVTAVATDIDADGLAEVADTAADLDLDGAVETVAGDLANDADIEAIVETAASHGTVRYLANIAGLQHIDAIEDFPMEKYDQMHDVMLRAPLALSKRVIPHIRGTDDGVGAIGNMASVHGHYVTSDKVAYNVSKFGLRGLTQSIAAEGGDGLRGFSISTGYVKTPLVVDQIPDTAEQRGISVDEVIDDVMLGQARIKEMMDPIDVANLFVFGFSRHANHLNGGDLLFDGGMTKTYEGHHHHHH”, the “soluble on expression in E. coli” value was “not soluble”.
In the case of “MASETSQFGIETDSITLQRYVLQEQRKHADASGELTALLTNMLVAIKAIASATQKAGLAKLYGIAGATNVQGEEVKKLDVLSNELMINMLKSSYTTCLLVSEENDELIEVEEQRRGKYIVTFDPLDGSSNIDCLVSIGTIFGIYKKRGDGPATVDDVLKPGKEMVAAGYALYGSATMVVLSTGDGVNGFTLDPSIGEFILTHPNMKCKEKGSIYSLNEGYAQTWSKGFAEYIRTRKYPEAGKKAMGQRYVGSMVADVHRTILNGGIFLYPPTVSAPNGKLRLLYECNPMAYIIEQAGGLATTGKERILDIQPTQIHQRAPIILGSKLDVEEALEYLAKYDN”, the “soluble on expression in E. coli” value is reported as “not soluble”.
For “MSLKDQVQLVKRRDSIRYEIVSIQDRLSFEKGFFAVIRACQLLSQKNDGIILVGVAGPSGAGKTVFTEKILNFLPSVAVISMDNYNDSSRIVDGNFDDPRLTDYDTLLKNLEDLKEGKQVEVPIYDFKSSSRVGYRTLDVPPSRIVIIEGIYALSEKLRPMLDLRVSVTGGVHFDLVKRVLRDIQRAGQQPEEIIHQISETVYPMYKAFIEPDLQTAQIKIINKFNPFTGFQSPTYILKSRKEGHHHHHH”, the “soluble on expression in E. coli” value was “not soluble”.
In the case of “QRRLEVKGVVNNITVYDDFAHHPTAITATIDALRAKVGQQRILAVLEPRSNTMKMGVHKHELATSLQDADSVFIYQPPTIEWQVSEVLANLAQPAISADDVDELVMRIVQQAKPNDHILIMSNGAFGGIHQKLLTALANAFLMPS”, the “soluble on expression in E. coli” value is reported as “not soluble”.
For “VGPEAYGEASHSHSPASGRYIQQMLDQRCQEIAAELCQSGLRKMCVPSSRIVARNAVGITHQNTLQWRCFDTASLLESNQENNGVNCVDDCGHTIPCPGGVHRQNSNHATRHEILSKLVEEGVQRFCSPYQASANKYCNDKFPGTIARRSKGFGNNVEVAWRCYEKASLLYSVYAECASNCGTTWYCPGGRRGTSTELDKRHYTEEEGIRQAIGSVDSPCSEVEVCLPKDENPPLCLDESGQISRT”, the “soluble on expression in E. coli” value was “soluble”.
In the case of “MGSDKIHHHHHHMLINADFSCRAALAPEHYQWVQSPQNGVERVMLDRVGAEKARATSIVRYAPESNFPYHLHPGGEEILVLSGTFSADNSDYPAGWYLRNPPKSGHQPYSNVGAVIFVKLWQMTADETHHVAIDTKDAKNWHRQGNREVCHLFLDTSEQVSLQRIEAGEILFPETIARGAELLVIEGELIEDSMLDKGQSYKKGSWIRLPVDATSPIVAGANGATVYLKTGHLSRIIGIDVY”, the “soluble on expression in E. coli” value is reported as “not soluble”.
For “MKMQTYYYVLASRRFLLQEEPIEEVLKERTRHYHEQEKEIDFWLVPQPAFLEAPEFADIKAKCPQPAAAIISTNSQFITWLKLRLEYVVTGEFSAPSETIPNPLASLATASLEHHHHHH”, the “soluble on expression in E. coli” value was “soluble”.
